Data: the supplement of paper PMC10724198
± gives the standard deviation of the averaged measurements.

What was measured:
[1] = test system: Saccharomyces cerevisiae; test: protein stability index of tFT-peptide fusion (C-terminal peptide) (PSI (0-1 scale)); higher = more stable (slower turnover)
Protocol: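 MPS profiling in S. cerevisiae of the tFT-X12 degron library: putative degron peptides plus stable controls, 12 aa, fused to the C-terminus of a sfGFP-mCherry timer. Cells are FACS-sorted into 8 mCherry/sfGFP bins and deep-sequenced. PSI runs from 0 (unstable) to 1 (stable). Backgrounds are wild type, das1Δ and doa10Δ at 30 °C, and wild type, das1Δ, cdc34-1 and cdc53-1 at 37 °C; 2-3 technical replicates each.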

[2] = test system: Saccharomyces cerevisiae; test: as above; settings: genetic background: wild type; temperature: 30 C
[3] = genetic background: cdc34-1, temperature: 37 C
[4] = genetic background: cdc53-1, temperature: 37 C
[5] = genetic background: das1 deletion, temperature: 30 C
[6] = genetic background: das1 deletion, temperature: 37 C
[7] = genetic background: doa10 deletion, temperature: 30 C
[8] = genetic background: wild type, temperature: 30 C
[9] = genetic background: wild type, temperature: 37 C
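Note: PSI is a weighted mean of sequencing reads over stability bins, variants kept only with over 10 reads, mCherry proximal and sfGFP distal, peptide attached via GGGS linker.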

Sequence | protein stability index [1, 3] | protein stability index [1, 4] | protein stability index [1, 5] | protein stability index [1, 6] | protein stability index [1, 7] | protein stability index [1, 8] | protein stability index [1, 9] | protein stability index [2]
FLSVPHLLFLFI | 0.608 ± 0.0063 | 0.634 ± 0.016 | 0.494 ± 0.021 | 0.619 ± 0.0054 | 0.49 ± 0.016 | 0.4689 ± 0.0032 | 0.6023 ± 0.0038 | 0.511 ± 0.017
FLTLQSPIQYIV | 0.584 ± 0.032 | 0.732 ± 0.013 | 0.646 ± 0.053 | 0.7289 ± 0.0016 | 0.105 ± 0.0049 | 0.117 ± 0.017 | 0.124 ± 0.0086 | 0.171 ± 0.015
FLTSPSVWRYLF | 0.623 ± 0.026 | 0.7196 ± 0.0049 | 0.693 ± 0.032 | 0.755 ± 0.0045 | 0.125 ± 0.046 | 0.139 ± 0.017 | 0.227 ± 0.017 | 0.153 ± 0.036
FLYIPLYCRLSF | 0.286 ± 0.034 | 0.3 ± 0.006 | 0.302 ± 0.031 | 0.433 ± 0.019 | 0.209 ± 0.018 | 0.147 ± 0.028 | 0.343 ± 0.011 | 0.256 ± 0.027
FPTLHPAIPYLC | 0.643 ± 0.013 | 0.672 ± 0.057 | 0.616 ± 0.017 | 0.7116 ± 0.0013 | 0.237 ± 0.01 | 0.282 ± 0.022 | 0.468 ± 0.02 | 0.458 ± 0.042
FRFGAKISLIVL | 0.569 ± 0.019 | 0.565 ± 0.014 | 0.47 ± 0.018 | 0.584 ± 0.015 | 0.189 ± 0.0063 | 0.225 ± 0.033 | 0.42 ± 0.034 | 0.368 ± 0.064
FRHFPLLLSFVR | 0.428 ± 0.025 | 0.4636 ± 0.0011 | 0.334 ± 0.033 | 0.512 ± 0.01 | 0.324 ± 0.015 | 0.323 ± 0.04 | 0.5 ± 0.0094 | 0.418 ± 0.062
FRILVGCRVVLM | 0.429 ± 0.0069 | 0.51 ± 0.077 | 0.355 ± 0.028 | 0.5047 ± 0.00065 | 0.311 ± 0.0097 | 0.343 ± 0.051 | 0.483 ± 0.016 | 0.426 ± 0.021
FSAVVCPTVFLC | 0.51 ± 0.051 | 0.725 ± 0.019 | 0.603 ± 0.015 | 0.746 ± 0.019 | 0.0928 ± 0.02 | 0.0973 ± 0.022 | 0.0951 ± 0.0051 | 0.185 ± 0.063
FSCWLFMLCVFL | 0.4339 ± 0.0012 | 0.459 ± 0.015 | 0.401 ± 0.013 | 0.466 ± 0.026 | 0.37 ± 0.017 | 0.316 ± 0.023 | 0.454 ± 0.025 | 0.393 ± 0.025
FSIFFFLLPSSL | 0.539 ± 0.03 | 0.559 ± 0.0082 | 0.448 ± 0.017 | 0.604 ± 0.0097 | 0.443 ± 0.028 | 0.441 ± 0.025 | 0.5593 ± 0.0021 | 0.464 ± 0.042
FSLFYYIHLSVA | 0.191 ± 0.002 | 0.211 ± 0.02 | 0.169 ± 0.034 | 0.2771 ± 0.002 | 0.0982 ± 0.0035 | 0.104 ± 0.028 | 0.197 ± 0.0021 | 0.192 ± 0.019
FSLGGVPYVFFV | 0.628 ± 0.05 | 0.694 ± 0.012 | 0.587 ± 0.024 | 0.716 ± 0.01 | 0.195 ± 0.022 | 0.221 ± 0.029 | 0.4579 ± 0.0017 | 0.37 ± 0.019
FSLWSRRSITVY | 0.04947 ± 0.00046 | 0.0405 ± 0.018 | 0.104 ± 0.042 | 0.113 ± 0.019 | 0.0595 ± 0.02 | 0.0899 ± 0.026 | 0.0886 ± 0.049 | 0.198 ± 0.057
FSPSHMLRIFCY | 0.337 ± 0.089 | 0.355 ± 0.067 | 0.286 ± 0.033 | 0.443 ± 0.0051 | 0.1793 ± 0.00023 | 0.212 ± 0.0047 | 0.282 ± 0.0028 | 0.294 ± 0.055
FSRPTYYFIRHS | 0.629 ± 0.048 | 0.696 ± 0.03 | 0.658 ± 0.038 | 0.69 ± 0.011 | 0.26 ± 0.021 | 0.272 ± 0.058 | 0.475 ± 0.048 | 0.403 ± 0.029
FSSRVFLIVGIY | 0.45 ± 0.015 | 0.614 ± 0.05 | 0.33 ± 0.029 | 0.538 ± 0.021 | 0.2266 ± 0.0017 | 0.27 ± 0.023 | 0.4874 ± 0.0027 | 0.427 ± 0.025
FVCFSFFFPFLL | 0.401 ± 0.0099 | 0.441 ± 0.0071 | 0.37 ± 0.033 | 0.5099 ± 0.001 | 0.163 ± 0.01 | 0.148 ± 0.016 | 0.238 ± 0.0042 | 0.237 ± 0.057
FVFCTCSFFFLW | 0.5113 ± 0.0046 | 0.532 ± 0.011 | 0.421 ± 0.026 | 0.54 ± 0.021 | 0.374 ± 0.004 | 0.393 ± 0.029 | 0.5103 ± 0.00052 | 0.477 ± 0.0076
